Test results: the domain aggregation screens of Martell et al. (2025)

Test: soluble fraction after stress (log2 fold change); higher = more stays soluble; pooled small domains, quantitative proteomics
Settings: stress: pH 4
Outline: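 How much of each domain stays soluble after acid stress, expressed as a fold change, is used to gauge aggregation propensity. Pooled custom libraries of small domains underwent pH 4 stress before high-throughput quantitative proteomics. A higher log2 value means more of the domain stayed soluble.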

Going from “HMLKHSKQRDAIEQFLATRYDHPTAETVYMNLREEYPKLSLATVYRNLSLLAELGNIQKIPTGNGPDRFDG” to “HMTGSALDATIEKLLDLGSKAGSVTEDEIQIVLKNVDVTDAQLSSIYQFLRDRGVEIVSATEDDD”, the “soluble fraction (log2)” value falls from 0.22 to -1.38.

First: HMYSSASKEEIDQLMKRLILNLDAKGYFWPQDKEKSLKLYLHNLFSKLPLNSSDIRFLHGLIRALSEE
Second: HMKEVELENMIKAKGFKDAAVLVDERSVTVIVESERLAAGDSASIKELVSRGTGVDPQNVVII
The “soluble fraction (log2)” value of the first is lower: -0.693 for the first, -0.295 for the second.

Compared with “HMDPLPDEVQEVIDMVDGFKAMDELSEADKADVKAAYDAYNALSAEHKAMVPEHIVTFLNRAYDKLFD”, “HMQDTYLYPVQHNGKVRLQVELPAKGLPEDLVRLALAHPKVVEWLNGRIPTKTIAVPGRIINMVLPNQ” is higher in “soluble fraction (log2)” value: -1.63 for the first, 0.18 for the second.

Going from “HMQDGVNLENIEQKLSTLGVGKAQYFLQNVGGNKFNAYMALNTDGVEGYQKGSDTLIEIKNVE” to “HMGKAVTLEEARAIIQAKVPGASPDMIQIWEEHGDGRGRYEGELSYNNMKYEFEMDPKTGIIFDWNA”, the “soluble fraction (log2)” value falls from 0.0934 to -0.189.

First: HMTPDGNATVWSANGYGVRLRTGPGKGYAIIGVYSVGTTVKVLERGPAGGWDHIQVGSRVGYMMNEFLHYY
Second: HMKGKIYFFEEGVDRVGGVERVISTLANEFSKKYKVNVISFYKTRKETFFKYNSDIDITYLSK
The “soluble fraction (log2)” value of the first is higher: 0.422 for the first, -0.264 for the second.

Going from “HMESAVDVFRSILKEKGVTEEEVRQVVAARGKYTLETPIDDYPNEFLYGYVIRYWDQIFDIIQQSREAK” to “HMSSIYVYPNPTANRIYIQADNIKKAELFDLMGRKVRSTNQPQIDISRLSRGNYILQVKTQNNTQSFKIIK”, the “soluble fraction (log2)” value rises from -1.57 to 0.0347.

“HMLPLIEVPAVTGKYLTKAKSALKDAGLDTGDIKRVEHEEHGENYVLKQDPPAGTKVPFGTTVSLTVVAP” and “HMKSSYSGNFKQNVVEYMHNNHLSATETANHFKLGGGSVVLRWERIYYEEGPQALYEERRGR” are within 0.2 log units of each other in “soluble fraction (log2)” value: 0.15 for the first, 0.144 for the second.

Compared with “HMAEWLFDARKIPDEVMNYLRRIAVQAIEEKHYSPELVADLLGISRSSIYDWLNWYRNGGEEDLDTRKA”, “HMIYQEGMQVKYQGKEYVISEIQDYKTYKTIKLDDNEGYLNGFITGSEILSFRNESELDLEI” is lower in “soluble fraction (log2)” value: -0.543 for the first, -0.785 for the second.

“HMEFDTEFVLRQAMHAFMQYGYAKTSMQKLKEATHLHPGSIYAAYGNKKGLFLAATEQYQKDR” and “HMNMLGEQVRNIRKSRGFTLKALAEQTGLSIGYISQIERNLTDPSLSTLRKISAALDVPTYLFMG” are within 0.2 log units of each other in “soluble fraction (log2)” value: -0.101 for the first, 0.0605 for the second.

First: HMVSAEQNTLEFIKENVKEDVIEDDIEFYKSLLEDWSVEVDNSSKLLDPGNNNSLLAVIAYSIENEL
Second: HMTMEFGEFLAKLRKERGYYQKEVAAYLNVTVATISNYEKNVHAPDLDTLVKLADFYDVSTDYLLQRT
The “soluble fraction (log2)” value of the first is higher: -0.414 for the first, -1.46 for the second.

“HMGAPVIYELTAESAAGQRIDKYLSGQLADLSRSYLQKLLKDGGVEVNKKPVKSNYKLSEGDQIRLEVPEA” and “HMTTELDTTAITPIIQKVLKANPDVVAKYKAGQQQVIGFLMGQVMRELSTKPNPKELQSLIVAQLQQA” are within 0.2 log units of each other in “soluble fraction (log2)” value: -0.198 for the first, -0.0703 for the second.

Compared with “HMTETSKLTDAKQLLESILSSGEVSYKDIISAAEEYEIGKRTLMSAKALLSIESIKKTDGWYWTLPH”, “HMDPSWVPVFNNLRDAILSHQLLPGTRLAEDELSNIYGLGRTVIRSALGALTHEGLLTHIPNRGVHVAKP” is lower in “soluble fraction (log2)” value: -0.0778 for the first, -0.585 for the second.

“HMVAEKSKIEMAIDSINKLAKELADSGVAKKTISDIIKSVSGSANYNKITDFEVATDVYKELVALKNKEDT” and “HMIVSEYIIIGGDKKEYGPVSMGEVGEWVQGGRANGDSKIKKVGTEEWGRLRDFPEFSAYLS” are within 0.2 log units of each other in “soluble fraction (log2)” value: -0.224 for the first, -0.309 for the second.

First: HMNDNFTPDDLNRLARIKDLPQAKKYALELISNKSAKPMKPEKVRWFANQLQKKKSVMDITKMMYDLLLA
Second: HMSLSISSLVFFRKNAGLTQADIATAMSITQSAVARLEKRLLSDSDVTLKTLERYAEAVGIRMHVDFEP
The “soluble fraction (log2)” value of the first is higher: 0.198 for the first, -0.0175 for the second.

Going from “HMDNVQLRNFAIKATEASIIYLDQEQRNFFWYNNNKKLMTVPFDENPYSAFAAYLKTDEGSEVYKAIEKKF” to “HMTAFSEQLIKLRKQKGLSQEQLGAAVGVTRQTVSKWELGDTTPELGKLVQLSDYFQLSIDELVGH”, the “soluble fraction (log2)” value rises from -0.504 to 0.177.

“HMTILTSSQRKALISKMIRQGGVESQSHLVKLLAREGVKVTQATASRDLEDLGATRVRDANGEFQYVIP” and “HMHTADDFKQLAKQTSNGQLRTRYLALYLFKNGETRTQIATYLGVARGSVNTWVSNYLAHGLEGLQSKP” are within 0.2 log units of each other in “soluble fraction (log2)” value: 0.0156 for the first, 0.0388 for the second.

Compared with “HMADRVFGHIPGVAVGSIFPDRRSLSQTGVHRPTQAGISGNKTDGADSIVVSGGYRDDRDYGDLIIYTG”, “HMITNLEPFKDFVRGFSGLHLEGVGQEKLAAALDERIRKTGSANERDYLQLIMEDVAERLKLINILT” is lower in “soluble fraction (log2)” value: -0.746 for the first, -1.17 for the second.

Going from “HMEITRDTVIQWLEAERRSQTWLSKQLGVSVQAVSNWLREKNPQTISASAQITIRALMEEDAAK” to “HMRRISLEDWQLIESLIRRDWSPEQISLWLKKYKKIRVSHEWIYQYILKDKSKAGDLHTHLRSR”, the “soluble fraction (log2)” value falls from 0.00665 to -0.419.

Going from “HMSDILALMPGTIKQILVAPGDSVKRGQTVIIMESMKMELTIAAHRDGVVKRIPVEQGGQVEKGMRLLELE” to “HMSTTALLEKMVRYIRTLPVISQVVLSLHYYRGMELREIASELDITESRASQLHTTAVLGIRDLLSSY”, the “soluble fraction (log2)” value falls from -0.263 to -2.02.

“HMPGEATVPSVIGMTKAEAKAKLQASGFELGYSEFVASDKPKGEIVEQDPGAGETAKGGTEVNVKISDGS” and “HMRKSLGEIVFDRMERAIKSGAYSPDERLPTELDLAAEFEVSRPVIRDALKRLRERGLIYSRQGAGSFVRA” are within 0.2 log units of each other in “soluble fraction (log2)” value: -0.187 for the first, -0.25 for the second.

First: HMTVSADIIQKIIKTSTTDENIITIDSISNSISKLALSKITAEDIIEILEASSLVLRNSNGSWTVL
Second: HMDAMLSEQLREKRGELLIEVDAIAGNALRWATLSAEQQDAWAVYRQALLDVPQQAGFPNDVVWPINPN
The “soluble fraction (log2)” value of the first is higher: -0.716 for the first, -0.982 for the second.

Compared with “HMSAETRSWTDAQGNQTQAVLRGFDGGDVLLQNAAGKTLRVPVKNLSEDDQRYVVLNISTLID”, “HMTSDADSLRDKTGYVAEQVTSKGGKVNLYDGGFDSLYSARSTGETISTGTEIRVVDPGGGNMLVVEPV” is higher in “soluble fraction (log2)” value: -0.594 for the first, -0.356 for the second.

“HMPPLVLRGVVMGADGARLAILAQGEAGAALGIGETWKEYTLRSVTDQSATLEHRSGTITLTR” and “HMDTNVPVPNVNGMTLNQAKAALEAAGFHVAVNWLGEKSDNNSVISYEPNGSAAKGTTITITVIAQPEQDG” are within 0.2 log units of each other in “soluble fraction (log2)” value: -0.437 for the first, -0.507 for the second.

First: HMRMQRYYLTDMSEKGREALPGVLDEMGYAGRYTMSDNSIAINSNMIVLSKAIKRAEDIAHNE
Second: HMRFDADELQKAYDLFDADENTPFKTIKQAYYALARRHHPDKNGDQEYFKVINNAFQLIQEHRRRRDN
The “soluble fraction (log2)” value of the first is higher: -0.148 for the first, -0.412 for the second.

Compared with “HMQKTIDWSQVDKEQYLSAMERSPVNDLEIKAILAKALTSDINNRELFMKGLDHSYYFEGYQLFKSE”, “HMQSEESTHIGERMLNQALRAMHVEPSAVKEKQWEKLIRDYSVKNKQDILTDIGLGKRQSVMVAHQLLAI” is higher in “soluble fraction (log2)” value: -0.939 for the first, -0.028 for the second.

First: HMLSLKAQVYEIIRQKILQQEYALGEKINIDTVADELKISNSPIREALMMLSQDGLIEMVPNNGARVI
Second: HMTIDANAIEKMVLDLIGEHPNEWGRYRDGDKKVQGFFVGQIMKATSGQADGKIVNQILSQHAEA
The “soluble fraction (log2)” value of the first is lower: -1.27 for the first, 0.126 for the second.

Compared with “HMKLRKINLIGIFGSKTAPSALVRLTNGRVLKVGLGELLDGGRVTAIGRSSLTYNKSGKSITLNMPI”, “HMPFSLHGVNEGSRNDNAARIAGYLISKNLNLDFVRIFLHNWNRDNKPPLPQQEIDSVVDNVKKTHDRKN” is lower in “soluble fraction (log2)” value: at least 0.43 for the first, -0.0731 for the second.

Compared with “HMGRKPVSPEIVERVLQLAKSNPDWGYEHIAGTMRYLGYNVSATTIRHILEANGIVPDPERRL”, “HMETIELSAPGGVRLDKLIADGTELSRSAAVKLIEQGNVLVNGSPAGKKDIPAAGAAVEITLPEPQ” is higher in “soluble fraction (log2)” value: -0.543 for the first, -0.255 for the second.

Compared with “HMNTISYTELIKQIDEGNVEKVEMTVGSTSVKVKLQGQEEEKKAIVPNTQAFVELIQEKTLEGNQIDLKQN”, “HMEVDDEAIYQGHEPSIRLHRLLKDVGYNSALLPSVVTQIFKDFPGIELAKALPIAMQLLNED” is lower in “soluble fraction (log2)” value: 0.0768 for the first, -1.47 for the second.

Compared with “HMEYSNLGEALRRLSEIDLQIILLKYSHGFSIKEISKILDIKEVNLYKRNKRALNKLKKILAEMEVLSN”, “HMSSKFKIVGEILSIKKSDILYIIEILSNNEVVKATAVEDEIKDLKIGDKILLSSKAFNPIVNK” is lower in “soluble fraction (log2)” value: -0.272 for the first, -1.09 for the second.

First: HMWTPLVVAVLIGGTHRFGELRAAVGGITPKVLTETLRSMERDGLVVREQTPGVPPRVDYALTPLGA
Second: HMKYWTISDLYSKLEEDQVELGAFSEDSNKVTVLDRQGYEHVIKILSSDVPALTELFRKKKVRFAVAG
The “soluble fraction (log2)” value of the first is lower: -0.191 for the first, 0.0959 for the second.

Compared with “HMPSNVKIPDVTGKTVAQARSAIEAAGLKVGKEKDEYSDSAKKDSVIRTNPQAGTQRREGSTVDLIVS”, “HMDKSPMIGTAEYEGVLYWRQTKDNGATWEWITDKNGDKMPVSGPAPAVGIDKDGYWTVNGESTGVLAKD” is lower in “soluble fraction (log2)” value: 0.22 for the first, -0.0267 for the second.

Compared with “HMTIELAEGQHFLQISKSGAPMGNVVRDLIIQTLKITNGNQIKAAKILGISRAKLRYRIEQLGINITGKNI”, “HMREISSDELHSLFSADQRGDLVINETTRLSIEKLYALHTPEEREAKVNELSGVLPSEAHRQLVHFLDYFD” is lower in “soluble fraction (log2)” value: -0.0446 for the first, -1.54 for the second.

Compared with “HMPELPEVETSRRGIEPHLVGATILHAVVRNGRLRWPVSEEIYRLSDQPVLSVQRRAKYLLLELQA”, “HMSASIAEGTVIMLENTTNIRSGMSEDSSKVGTAYAGEKVTVVMSYAEGWTKVKWNGETGYIKTALLQL” is lower in “soluble fraction (log2)” value: 0.369 for the first, -0.405 for the second.

Going from “HMRELPKRPEIRYAAGDRVFHKAFGNGLVKQVAQTAGGARVTVDFGEGKGVKTFAGDAPMIKI” to “HMANSREIPKLAGIEQEEAVKQLLDLDLKPVIEEITDDDTDAGDVVRTDPAAGEHVAVDTEITVFISIG”, the “soluble fraction (log2)” value falls from 0.326 to -0.192.

Compared with “HMEFQVKVIVSSLNIRSGPGTSYDTLGTVTKGDIFTIVETNSDSTWGKMQSGGWISIKDAYVKK”, “HMSTEAFLGTEGEVVLPLLPDGLGKIRLHVADQDVELPARTGGEPIQIRERVVVVRFRDGIAEVEPAP” is lower in “soluble fraction (log2)” value: -0.216 for the first, -0.525 for the second.

Compared with “HMGAGFREAIPPALDGERIDRVVSLLAYVSRNRAAGALAAGSVSVDGEVVFQRSRRVREGEELVVTGFERE”, “HMQVEYTRGELIQDLEGGKIVYAGISPSRETPTGEVNFILDSGLTRTLYVTDVSEIEQLLISYDIDPEVKK” is lower in “soluble fraction (log2)” value: -0.427 for the first, -1.63 for the second.

With “HMGSVNDNVQKLTSQIGETTETGDTITPEDVELYKKMVDPLSTMAQKLEAAEILKLKGIIGSNGIIV” the “soluble fraction (log2)” value was -0.0476.
